{"source": "paper PMC12747170", "target": "JEV-ED3 protein (domain III of the Japanese encephalitis virus envelope protein, aa 303-398, C-terminal His-tag) (Japanese encephalitis virus)", "experiment": "BLI", "data": [{"substance": "recombinant Human EGFR Protein (ECD, hFc Tag) (from UniProt P00533 25-645) (Fc fusion)", "values": [{"measurement": "Kd", "value": 283, "unit": "nM"}]}]}
